Test results reported in patent US20230250154A1 (CYTONICS, published 2023).
Positions count from the first letter of the chain named. In names and notes the source's numbering stands.

T1: MMP7 (UniProt P09237 95-267, limits assumed)
T1 sequence (looked up): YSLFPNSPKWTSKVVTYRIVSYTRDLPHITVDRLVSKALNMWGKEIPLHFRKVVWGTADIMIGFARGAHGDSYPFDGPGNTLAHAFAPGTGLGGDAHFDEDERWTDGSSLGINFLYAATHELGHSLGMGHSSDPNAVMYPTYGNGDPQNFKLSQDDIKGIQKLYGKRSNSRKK

T2: MMP2 (human, UniProt P08253 110-660, limits assumed)
T2 sequence (looked up): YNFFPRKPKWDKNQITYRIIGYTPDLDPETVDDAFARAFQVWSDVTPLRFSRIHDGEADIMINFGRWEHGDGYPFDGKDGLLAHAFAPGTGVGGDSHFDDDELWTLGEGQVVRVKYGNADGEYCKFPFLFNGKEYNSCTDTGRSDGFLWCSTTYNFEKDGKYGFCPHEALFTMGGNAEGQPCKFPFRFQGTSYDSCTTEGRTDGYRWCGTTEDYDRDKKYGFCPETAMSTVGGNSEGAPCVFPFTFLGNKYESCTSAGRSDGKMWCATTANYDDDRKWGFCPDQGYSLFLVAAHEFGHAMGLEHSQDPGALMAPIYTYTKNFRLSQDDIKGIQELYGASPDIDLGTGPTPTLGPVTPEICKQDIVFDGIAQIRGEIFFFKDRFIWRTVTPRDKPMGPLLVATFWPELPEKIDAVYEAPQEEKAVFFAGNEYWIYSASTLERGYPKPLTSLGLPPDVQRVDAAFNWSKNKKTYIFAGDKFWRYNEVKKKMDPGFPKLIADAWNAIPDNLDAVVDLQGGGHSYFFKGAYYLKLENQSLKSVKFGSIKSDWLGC

T3: Cathepsin G (UniProt P08311 21-244)
T3 sequence (looked up): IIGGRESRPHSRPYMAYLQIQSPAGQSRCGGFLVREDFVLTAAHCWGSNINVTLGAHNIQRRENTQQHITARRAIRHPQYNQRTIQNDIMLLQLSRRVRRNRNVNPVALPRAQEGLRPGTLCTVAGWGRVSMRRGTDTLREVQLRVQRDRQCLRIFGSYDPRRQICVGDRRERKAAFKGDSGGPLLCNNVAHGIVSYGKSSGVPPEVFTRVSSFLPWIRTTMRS

T4: ADAMTS5 (human, UniProt Q9UNA0 262-622, limits assumed)
T4 sequence (looked up): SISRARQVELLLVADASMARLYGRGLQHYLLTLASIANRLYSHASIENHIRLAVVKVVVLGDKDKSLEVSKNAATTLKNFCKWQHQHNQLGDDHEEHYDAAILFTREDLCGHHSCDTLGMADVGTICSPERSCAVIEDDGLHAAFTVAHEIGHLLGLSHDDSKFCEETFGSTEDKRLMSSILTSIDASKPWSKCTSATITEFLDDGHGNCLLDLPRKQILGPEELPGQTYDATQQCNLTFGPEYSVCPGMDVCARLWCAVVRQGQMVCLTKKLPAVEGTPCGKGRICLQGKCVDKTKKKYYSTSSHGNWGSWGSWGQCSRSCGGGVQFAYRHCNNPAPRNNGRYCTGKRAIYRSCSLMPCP

T5: ADAMTS4 (human, UniProt O75173 213-685, limits assumed)
T5 sequence (looked up): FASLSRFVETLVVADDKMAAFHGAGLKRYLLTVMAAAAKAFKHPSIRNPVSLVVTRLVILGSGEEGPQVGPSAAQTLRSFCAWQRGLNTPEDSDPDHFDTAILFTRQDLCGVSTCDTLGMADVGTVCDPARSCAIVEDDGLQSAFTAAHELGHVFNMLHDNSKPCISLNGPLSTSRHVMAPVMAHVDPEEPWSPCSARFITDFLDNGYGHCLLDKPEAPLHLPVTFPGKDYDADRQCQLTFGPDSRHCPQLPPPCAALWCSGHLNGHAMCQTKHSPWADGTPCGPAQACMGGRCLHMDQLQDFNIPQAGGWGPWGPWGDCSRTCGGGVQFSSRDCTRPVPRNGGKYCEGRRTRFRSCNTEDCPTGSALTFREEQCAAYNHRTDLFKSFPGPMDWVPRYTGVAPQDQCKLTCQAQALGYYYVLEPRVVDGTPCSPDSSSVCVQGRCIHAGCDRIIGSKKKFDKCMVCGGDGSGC

T6: MMP1 (human, UniProt P03956 100-469, limits assumed)
T6 sequence (looked up): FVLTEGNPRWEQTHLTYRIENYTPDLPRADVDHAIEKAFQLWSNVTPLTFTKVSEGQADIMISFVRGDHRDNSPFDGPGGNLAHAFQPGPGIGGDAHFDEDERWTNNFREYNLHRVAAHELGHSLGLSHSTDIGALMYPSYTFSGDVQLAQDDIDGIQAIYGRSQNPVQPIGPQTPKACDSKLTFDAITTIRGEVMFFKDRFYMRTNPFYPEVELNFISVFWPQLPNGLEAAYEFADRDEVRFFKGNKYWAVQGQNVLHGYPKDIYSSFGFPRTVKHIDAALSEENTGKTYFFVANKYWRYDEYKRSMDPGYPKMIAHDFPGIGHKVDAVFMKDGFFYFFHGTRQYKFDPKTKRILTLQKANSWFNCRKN

B1: Variant A2M, bait region SEQ ID NO 7 (other)
chain: SVSGKPQYMVLVPSLLHTETTEKGCVLLSYLNETVTVSASLESVRGNRSLFTDLEAENDVLHCVAFAVPKSSSNEEVMFLTVQVKGPTQEFKKRTTVMVKNEDSLVFVQTDKSIYKPGQTVKFRVVSMDENFHPLNELIPLVYIQDPKGNRIAQWQSFQLEGGLKQFSFPLSSEPFQGSYKVVVQKKSGGRTEHPFTVEEFVLPKFEVQVTVPKIITILEEEMNVSVCGLYTYGKPVPGHVTVSICRKYSDASDCHGEDSQAFCEKFSGQLNSHGCFYQQVKTKVFQLKRKEYEMKLHTEAQIQEEGTVVELTGRQSSEITRTITKLSFVKVDSHFRQGIPFFGQVRLVDGKGVPIPNKVIFIRGNEANYYSNATTDEHGLVQFSINTTNVMGTSLTVRVNYKDRSPCYGYQWVSEEHEEAHHTAYLVFSPSKSFVHLEPMSHELPCGHTQTVQAHYILNGGTLLGLKKLSFYYLIMAKGGIVRTGTHGLLVKQEDMKGHFSISIPVKSDIAPVARLLIYAVLPTGDVIGDSAKYDVENCLANKVDLSFSPSQSLPASHAHLRVTAAPQSVCALRAVDQSVLLMKPDAELSASSVYNLLPEKDLTGFPGPLNDQDDEDCINRHNVYINGITYTPVSSTNEKDMYSFLEDMGLKAFTNSKIRKPKMCPQLEHGPEGEGEGEGIPENFFGVRYSEDLVVQISELEGRGSVEEPHTKLRKYFPETWIWDLVVVNSAGVAEVGVTVPDTITEWKAGAFCLSEDAGLGISSTASLRAFQPFFVELTMPYSVIRGEAFTLKATVLNYLPKCIRVSVQLEASPAFLAVPVEKEQAPHCICANGRQTVSWAVTPKSLGNVNFTVSAEALESQELCGTEVPSVPEHGRKDTVIKPLLVEPEGLEKETTFNSLLCPSGGEVSEELSLKLPPNVVEESARASVSVLGDILGSAMQNTQNLLQMPYGCGEQNMVLFAPNIYVLDYLNETQQLTPEIKSKAIGYLNTGYQRQLNYKHYDGSYSTFGERYGRNQGNTWLTAFVLKTFAQARAYIFIDEAHITQALIWLSQRQKDNGCFRSSGSLLNNAIKGGVEDEVTLSAYITIALLEIPLTVTHPVVRNALFCLESAWKTAQEGDHGSHVYTKALLAYAFALAGNQDKRKEVLKSLNEEAVKKDNSVHWERPQKPKAPVGHFYEPQAPSAEVEMTSYVLLAYLTAQPAPTSEDLTSATNIVKWITKQQNAQGGFSSTQDTVVALHALSKYGAATFTRTGKAAQVTIQSSGTFSSKFQVDNNNRLLLQQVSLPELPGEYSMKVTGEGCVYLQTSLKYNILPEKEEFPFALGVQTLPQTCDEPKAHTSFQISLSVSYTGSRSASNMAIVDVKMVSGFIPLKPTVKMLERSNHVSRTEVSSNHVLIYLDKVSNQTLSLFFTVLQDVPVRDLKPAIVKVYDYYETDEFAIAEYNAPCSKDLGNADYKDDDDKGASHHHHHH
B2: Variant A2M, bait region SEQ ID NO 8 (other)
chain: B1 chain with R690L
B3: Variant A2M, bait region SEQ ID NO 20 (other)
chain: SVSGKPQYMVLVPSLLHTETTEKGCVLLSYLNETVTVSASLESVRGNRSLFTDLEAENDVLHCVAFAVPKSSSNEEVMFLTVQVKGPTQEFKKRTTVMVKNEDSLVFVQTDKSIYKPGQTVKFRVVSMDENFHPLNELIPLVYIQDPKGNRIAQWQSFQLEGGLKQFSFPLSSEPFQGSYKVVVQKKSGGRTEHPFTVEEFVLPKFEVQVTVPKIITILEEEMNVSVCGLYTYGKPVPGHVTVSICRKYSDASDCHGEDSQAFCEKFSGQLNSHGCFYQQVKTKVFQLKRKEYEMKLHTEAQIQEEGTVVELTGRQSSEITRTITKLSFVKVDSHFRQGIPFFGQVRLVDGKGVPIPNKVIFIRGNEANYYSNATTDEHGLVQFSINTTNVMGTSLTVRVNYKDRSPCYGYQWVSEEHEEAHHTAYLVFSPSKSFVHLEPMSHELPCGHTQTVQAHYILNGGTLLGLKKLSFYYLIMAKGGIVRTGTHGLLVKQEDMKGHFSISIPVKSDIAPVARLLIYAVLPTGDVIGDSAKYDVENCLANKVDLSFSPSQSLPASHAHLRVTAAPQSVCALRAVDQSVLLMKPDAELSASSVYNLLPEKDLTGFPGPLNDQDDEDCINRHNVYINGITYTPVSSTNEKDMYSFLEDMGLKAFTNSKIRKPKMCPQLEHGPEFRGVTEGEGEGIPENFYGVSEDLVVQISELEGRGSVEEPHTKLRKYFPETWIWDLVVVNSAGVAEVGVTVPDTITEWKAGAFCLSEDAGLGISSTASLRAFQPFFVELTMPYSVIRGEAFTLKATVLNYLPKCIRVSVQLEASPAFLAVPVEKEQAPHCICANGRQTVSWAVTPKSLGNVNFTVSAEALESQELCGTEVPSVPEHGRKDTVIKPLLVEPEGLEKETTFNSLLCPSGGEVSEELSLKLPPNVVEESARASVSVLGDILGSAMQNTQNLLQMPYGCGEQNMVLFAPNIYVLDYLNETQQLTPEIKSKAIGYLNTGYQRQLNYKHYDGSYSTFGERYGRNQGNTWLTAFVLKTFAQARAYIFIDEAHITQALIWLSQRQKDNGCFRSSGSLLNNAIKGGVEDEVTLSAYITIALLEIPLTVTHPVVRNALFCLESAWKTAQEGDHGSHVYTKALLAYAFALAGNQDKRKEVLKSLNEEAVKKDNSVHWERPQKPKAPVGHFYEPQAPSAEVEMTSYVLLAYLTAQPAPTSEDLTSATNIVKWITKQQNAQGGFSSTQDTVVALHALSKYGAATFTRTGKAAQVTIQSSGTFSSKFQVDNNNRLLLQQVSLPELPGEYSMKVTGEGCVYLQTSLKYNILPEKEEFPFALGVQTLPQTCDEPKAHTSFQISLSVSYTGSRSASNMAIVDVKMVSGFIPLKPTVKMLERSNHVSRTEVSSNHVLIYLDKVSNQTLSLFFTVLQDVPVRDLKPAIVKVYDYYETDEFAIAEYNAPCSKDLGNADYKDDDDKGASHHHHHH

What follows are binders tested against T1, MMP7 (assay: cell-based or functional assay).

Protease Inhibition (% of WT) | Binder
147 % of WT | B1
64 % of WT | B2
170 % of WT | B3

The binders below were run against T2, MMP2 (assay: cell-based or functional assay).

Protease Inhibition (% of WT) | Binder
58 % of WT | B1
33 % of WT | B2
37 % of WT | B3

What follows are binders tested against MMP13 (human, UniProt P45452 104-471, limits assumed) (assay: cell-based or functional assay).

Protease Inhibition (% of WT) | Binder
145 % of WT | B1
56 % of WT | B2
100 % of WT | B3

The binders below were run against T3, Cathepsin G (assay: cell-based or functional assay).

Protease Inhibition (% of WT) | Binder
157 % of WT | B1
12 % of WT | B2
117 % of WT | B3

Each binder was assayed against Elastase (assay: cell-based or functional assay).

Protease Inhibition (% of WT) | Binder
131 % of WT | B1
39 % of WT | B2
124 % of WT | B3

These binders were tested against MMP3 (human, UniProt P08254 100-477, limits assumed) (assay: cell-based or functional assay).
MMP3, sequence (P08254 100-477 limits assumed): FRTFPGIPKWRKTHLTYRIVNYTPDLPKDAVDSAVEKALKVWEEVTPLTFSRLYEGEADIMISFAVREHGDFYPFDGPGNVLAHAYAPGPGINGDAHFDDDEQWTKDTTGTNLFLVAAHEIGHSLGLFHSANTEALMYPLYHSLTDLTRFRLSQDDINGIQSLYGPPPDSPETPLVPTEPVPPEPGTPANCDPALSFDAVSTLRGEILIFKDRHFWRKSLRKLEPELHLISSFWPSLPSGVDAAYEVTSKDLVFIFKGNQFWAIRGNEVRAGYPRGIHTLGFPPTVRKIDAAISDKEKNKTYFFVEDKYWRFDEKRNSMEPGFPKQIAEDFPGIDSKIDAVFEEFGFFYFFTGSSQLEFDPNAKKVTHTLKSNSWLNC

Protease Inhibition (% of WT) | Binder
127 % of WT | B1
< 100 % of WT | B2
122 % of WT | B3

Each binder was assayed against MMP8 (human, UniProt P22894 101-467, limits assumed) (assay: cell-based or functional assay).
MMP8, sequence (P22894 101-467 limits assumed): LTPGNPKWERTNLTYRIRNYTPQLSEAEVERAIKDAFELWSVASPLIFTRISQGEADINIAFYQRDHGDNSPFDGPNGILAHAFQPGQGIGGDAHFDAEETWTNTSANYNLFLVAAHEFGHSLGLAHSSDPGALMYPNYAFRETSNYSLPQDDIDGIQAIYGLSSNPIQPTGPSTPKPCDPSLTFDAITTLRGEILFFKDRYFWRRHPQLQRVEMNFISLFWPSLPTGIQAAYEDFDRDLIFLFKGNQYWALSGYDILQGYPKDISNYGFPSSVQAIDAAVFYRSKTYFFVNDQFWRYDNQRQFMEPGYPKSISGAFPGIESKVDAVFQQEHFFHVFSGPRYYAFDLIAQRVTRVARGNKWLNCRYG

Protease Inhibition (% of WT) | Binder
81 % of WT | B1
28 % of WT | B2
64 % of WT | B3

The binders below were run against T4, ADAMTS5 (assay: cell-based or functional assay).

Protease Inhibition (% of WT) | Binder
79 % of WT | B1
97 % of WT | B2
246 % of WT | B3

What follows are binders tested against T5, ADAMTS4 (assay: cell-based or functional assay).

Protease Inhibition (% of WT) | Binder
222 % of WT | B1
120 % of WT | B2
201 % of WT | B3

What follows are binders tested against T6, MMP1 (assay: cell-based or functional assay).

Protease Inhibition (% of WT) | Binder
117 % of WT | B1
48 % of WT | B2
119 % of WT | B3

What follows are binders tested against MMP9 (human, UniProt P14780 107-707, limits assumed) (assay: cell-based or functional assay).
MMP9, sequence (P14780 107-707 limits assumed): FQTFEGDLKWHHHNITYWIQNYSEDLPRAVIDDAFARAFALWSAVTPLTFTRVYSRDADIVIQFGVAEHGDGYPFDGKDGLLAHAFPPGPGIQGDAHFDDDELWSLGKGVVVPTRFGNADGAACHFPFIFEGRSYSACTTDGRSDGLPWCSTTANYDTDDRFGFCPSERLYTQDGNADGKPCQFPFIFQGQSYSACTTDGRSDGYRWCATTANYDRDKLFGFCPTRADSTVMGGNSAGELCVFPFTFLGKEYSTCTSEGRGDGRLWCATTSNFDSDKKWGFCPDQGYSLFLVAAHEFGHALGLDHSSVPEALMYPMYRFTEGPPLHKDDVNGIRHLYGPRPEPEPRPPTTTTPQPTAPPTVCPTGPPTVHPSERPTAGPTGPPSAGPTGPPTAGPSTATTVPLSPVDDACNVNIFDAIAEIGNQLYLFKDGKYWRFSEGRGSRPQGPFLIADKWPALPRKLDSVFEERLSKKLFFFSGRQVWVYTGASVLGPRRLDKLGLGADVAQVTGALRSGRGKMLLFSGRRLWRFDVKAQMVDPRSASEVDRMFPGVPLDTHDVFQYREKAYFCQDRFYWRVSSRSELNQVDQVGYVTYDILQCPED

Protease Inhibition (% of WT) | Binder
39 % of WT | B1
9 % of WT | B2
41 % of WT | B3
